Results published in article doi:10.1101/2025.11.17.688803.

Molecular target: endogenous LRBA of mouse embryonic fibroblasts (mouse (endogenous in MEFs)) (UniProt Q9ESE1)
Assay: SEC

stoichiometry N: 2
Substance: endogenous LRBA of mouse embryonic fibroblasts (from UniProt Q9ESE1 1-2856) (natural protein)
